Laboratory results reported in patent US20220389118A1 (Chugai, published 2022).
Substitutions are numbered along the chain they refer to. Read-outs that look alike come from different tables or passages of the source.

How the values were obtained:
[1] = target: T1, soluble human IL-6 receptor (human, UniProt P08887 20-357); experiment: SPR (Biacore T100), about 300 RU of antibody captured on a Protein A/G chip (CM5), human IL-6 receptor as analyte, pH 7.4, 1.2 mM CaCl2, 37 °C
T1 construct: also called hsIL-6R
T1 sequence: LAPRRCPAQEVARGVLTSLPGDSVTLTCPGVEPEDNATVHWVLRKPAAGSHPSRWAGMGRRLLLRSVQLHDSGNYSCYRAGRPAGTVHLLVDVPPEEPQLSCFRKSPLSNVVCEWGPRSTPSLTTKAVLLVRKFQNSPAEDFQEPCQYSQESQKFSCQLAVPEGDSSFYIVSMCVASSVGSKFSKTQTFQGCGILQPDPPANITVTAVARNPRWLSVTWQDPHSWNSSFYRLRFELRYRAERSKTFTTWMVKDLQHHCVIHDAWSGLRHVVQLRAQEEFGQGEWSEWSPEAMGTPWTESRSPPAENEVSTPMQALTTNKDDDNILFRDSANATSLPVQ
Protocol: These buffers were each used to dilute human IL-6 receptor. All measurements were carried out at 37° C.
Then, 10 mM glycine-HCl (pH 1.5) was injected at a flow rate of 30 μl/min for 30 seconds to regenerate the sensor chip.

[2] = target: T2, human FcγRIIb extracellular domain with C-terminal His tag (human, UniProt P31994 43-217); experiment: SPR (Biacore); KD ratio against IL6R-B3/IL6R-L
T2 construct: extracellular domain; not shown: His tag at the C terminus
T2 sequence (looked up): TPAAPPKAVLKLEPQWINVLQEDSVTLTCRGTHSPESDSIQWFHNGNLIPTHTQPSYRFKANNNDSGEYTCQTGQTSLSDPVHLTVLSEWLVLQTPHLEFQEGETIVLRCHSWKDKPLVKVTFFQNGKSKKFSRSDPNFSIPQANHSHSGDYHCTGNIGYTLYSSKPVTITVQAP

[3] = target: T2, human FcγRIIb extracellular domain with …; experiment: SPR (Biacore), antibody captured, FcγR analyte
[4] = target: T3, human FcγRIa extracellular domain with C-terminal His tag (human, UniProt P12314 16-292); experiment: SPR (Biacore), antibody captured, FcγR analyte
T3 construct: not shown: His tag at the C terminus
T3 sequence (P12314 16-292): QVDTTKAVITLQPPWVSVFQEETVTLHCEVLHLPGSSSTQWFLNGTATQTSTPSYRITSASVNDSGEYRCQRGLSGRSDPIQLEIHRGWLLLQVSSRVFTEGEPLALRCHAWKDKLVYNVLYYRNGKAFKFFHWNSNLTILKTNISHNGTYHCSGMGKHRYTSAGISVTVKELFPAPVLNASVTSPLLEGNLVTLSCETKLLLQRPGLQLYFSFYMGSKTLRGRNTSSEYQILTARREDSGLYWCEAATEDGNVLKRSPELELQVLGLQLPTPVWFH

[5] = target: T4, human FcγRIIa type H (allotype H131) extracellular domain with C-terminal His tag (human, UniProt P12318 34-217); experiment: SPR (Biacore), antibody captured, FcγR analyte
T4 construct: extracellular domain; also called FcγRIIaH; FcγRIIa H type; not shown: His tag at the C terminus
T4 sequence (looked up): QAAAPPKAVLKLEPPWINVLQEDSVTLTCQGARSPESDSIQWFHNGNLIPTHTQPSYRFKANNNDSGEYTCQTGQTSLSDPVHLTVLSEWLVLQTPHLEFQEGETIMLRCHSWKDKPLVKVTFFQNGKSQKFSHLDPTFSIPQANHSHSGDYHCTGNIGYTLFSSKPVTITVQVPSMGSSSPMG

[6] = target: T5, human FcγRIIIa type V (allotype V158) extracellular domain with C-terminal His tag (human, UniProt P08637 17-208); experiment: SPR (Biacore), antibody captured, FcγR analyte
T5 construct: extracellular domain; also called FcγRIIIaV; FcγRIIIa V type; not shown: His tag at the C terminus
T5 sequence (P08637 17-208 F176V): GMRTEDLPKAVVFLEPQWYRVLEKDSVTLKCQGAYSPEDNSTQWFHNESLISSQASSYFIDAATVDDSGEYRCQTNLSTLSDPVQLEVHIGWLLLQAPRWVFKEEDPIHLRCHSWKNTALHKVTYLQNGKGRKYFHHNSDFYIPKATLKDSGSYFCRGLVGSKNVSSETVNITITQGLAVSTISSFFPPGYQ

[7] = target: T6, human FcγRIIa type R (allotype R131) extracellular domain with C-terminal His tag (human, UniProt P12318 34-217); experiment: SPR (Biacore), antibody captured, FcγR analyte
T6 construct: extracellular domain; also called FcγRIIaR; FcγRIIa R type; not shown: His tag at the C terminus
T6 sequence (looked up): T4 sequence (looked up) with H134R

[8] = target: T7, human FcγRIa extracellular domain with C-terminal His tag (human, UniProt P12314 16-292); experiment: SPR (Biacore), antibody captured, FcγR analyte; remark: listed apart in the source
T7 construct: not shown: His tag at the C terminus
T7 sequence (P12314 16-292): as the sequence (P12314 16-292) above

[9] = target: T8, human FcγRIIb extracellular domain (human, UniProt P31994 43-217); experiment: ratio of the SPR KD for FcγRIIaH to the KD for FcγRIIb (selectivity)
T8 construct: also called FcγIIB; not shown: His tag at the C terminus
T8 sequence: T2 sequence (looked up)

[10] = target: T9, human FcγRIIa type R extracellular domain (human, UniProt P12318 34-217); experiment: fold against IL6R-B3/IL6R-L, from SPR KD values
T9 construct: also called FcγRIIaR; FcγRIIa(R); not shown: His tag at the C terminus
T9 chain: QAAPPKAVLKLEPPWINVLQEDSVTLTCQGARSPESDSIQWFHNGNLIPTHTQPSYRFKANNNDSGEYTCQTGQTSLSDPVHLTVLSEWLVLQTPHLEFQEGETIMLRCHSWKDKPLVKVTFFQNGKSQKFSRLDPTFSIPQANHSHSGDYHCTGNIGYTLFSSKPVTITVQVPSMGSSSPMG

[11] = target: T8, human FcγRIIb extracellular domain; experiment: fold against IL6R-B3/IL6R-L, from SPR KD values
[12] = target: T8, human FcγRIIb extracellular domain; experiment: ratio of the SPR KD for FcγRIIaR to the KD for FcγRIIb (selectivity)
[13] = target: T9, human FcγRIIa type R extracellular …; experiment: SPR (Biacore), antibody captured on chip, FcγR extracellular domain as analyte, 25 C
[14] = target: T10, human FcγRIIa type H extracellular domain (human, UniProt P12318 34-217); experiment: as above
T10 construct: also called FcγRIIaH; FcγRIIa(H); not shown: His tag at the C terminus
T10 sequence: T9 chain with R133H

[15] = target: T8, human FcγRIIb extracellular domain; experiment: as above
[16] = target: T11, human FcγRIa extracellular domain (human, UniProt P12314 16-292); experiment: as above
T11 construct: also called CD64; not shown: His tag at the C terminus
T11 sequence (P12314 16-292): as the sequence (P12314 16-292) above

[17] = target: T12, soluble human IL-6 receptor (hsIL-6R) (human, UniProt P08887 20-357); experiment: SPR (Biacore T100), 3 µM CaCl2; estimated by Equation 3; summary table
T12 sequence: T1 sequence
Protocol: (§1) The kinetic analysis of the antigen-antibody reactions was conducted in solutions with 2 mM and 3 μM calcium ion concentrations, set as high and low calcium ion concentration conditions, respectively. The antibody of interest was captured on Sensor chip CM4 (GE Healthcare) on which an appropriate amount of Protein A (Invitrogen) was immobilized by an amine coupling method. Two buffers [10 mM ACES, 150 mM NaCl, 0.05% (w/v) Tween 20, and 2 mM CaCl₂) (pH 7.4) or 10 mM ACES, 150 mM NaCl, 0.05% (w/v) Tween 20, and 3 μmol/L CaCl₂ (pH 7.4)] were used as running buffers. These buffers were used for diluting human IL-6 receptor. All the measurements were conducted at 37° C.
(§2) Subsequently, the sensor chip was regenerated by injecting 10 mM glycine-HCl (pH 1.5) at a flow rate 30 μL/min for 30 seconds. Dissociation constants (KD) (M) were calculated from the sensorgrams obtained in the measurement, using a steady-state affinity model. Each parameter was calculated using the Biacore T100 Evaluation Software (GE Healthcare).

[18] = target: T12, soluble human IL-6 receptor (hsIL-6R); experiment: SPR (Biacore T100), 3 µM CaCl2, pH 7.4, 37 C; KD estimated from Req, Rmax, RI and C by Equation 3
Protocol: as §1, §2

B1: 6RpH#02 (antibody, human IgG1, kappa, V domains shown)
VH: QVQLVQSGAEVKKPGSSVKVSCKASGGTFSSYAISWVRQAPGQGLEWMGGIIPIFGTANYAQKFQGRVTITADESTSTAYMELSSLRSEDTAVYYCMINGVWEGGMDVWGQGTTVTVSS
VL: DIQMTQSPSSLSASVGDRVTITCRASQSIHSHLNWYQQKPGKAPKLLIYHASKLQSGVPSRFSGSGSGTDFTLTISSLQPEDFATYYCQQHGNSPLTFGQGTKVEIKR
binding result [1]: binds

B2: IL6R-BP198/IL6R-L (antibody, human IgG1, kappa)
heavy: QVQLQESGPGLVKPSETLSLTCAVSGHSISHDHAWSWVRQPPGEGLEWIGFISYSGITNYNPSLQGRVTISRDNSKNTLYLQMNSLRAEDTAVYYCARSLARTTAMDYWGEGTLVTVSSASTKGPSVFPLAPSSKSTSGGTAALGCLVKDYFPEPVTVSWNSGALTSGVHTFPAVLQSSGLYSLSSVVTVPSSSLGTQTYICNVNHKPSNTKVDKKVEPKSCDKTHTCPPCPAPDYLGGDSVFLFPPKPKDTLMISRTPEVTCVVVDVSDEDGEVKFNWYVDGVEVHNAKTKPREEQYNSTYRVVSVLTVLHQDWLNGKEYKCKVSNAALPKPIEKTISKAKGQPREPQVYTLPPSRDELTKNQVSLTCLVKGFYPSDIAVEWESNGQPENNYKTTPPVLDSDGSFFLYSKLTVDKSRWQQGNVFSCSVMHEALHNHYTQESLSLSP
light: not shown
notes: copies: 2 + 2
KD(IIb) of parent polypeptide/KD(IIb) of altered polypeptide [2]: 15.7 | Kd [3]: 0.2 µM | Kd [4]: 0.011 µM | Kd [5]: 20 µM | Kd [6]: 44 µM

B3: IL6R-BP223/IL6R-L (antibody, human IgG1, kappa)
heavy: B2 heavy with D235E, G239D, K332R
light: not shown
notes: copies: 2 + 2
Kd [7]: 0.6 µM

B4: IL6R-BP384/IL6R-L (antibody, human IgG1, kappa)
heavy: B2 heavy with Y236L, G239D, Y298D, A328K, K332R, K336R
light: not shown
notes: K334R introduced into IL6R-BP230; copies: 2 + 2
Kd [8]: 0.003 µM

B5: IL6R-BP563/IL6R-L (antibody, human IgG1, kappa)
heavy: B2 heavy with Y236L, G239D, D270E, E274D, Y298D, A328K, K332R
light: not shown
notes: copies: 2 + 2
KD(IIaH)/KD(IIb) [9]: 525 | KD(IIaR) of the parent polypeptide/KD(IIaR) of the altered polypeptide [10]: 2.4 | KD(IIb) of the parent polypeptide/KD(IIb) of the altered polypeptide [11]: 196 | KD(IIaR)/KD(IIb) [12]: 29.1 | Kd [13]: 0.46 µM | Kd [14]: 8.3 µM | Kd [15]: 0.016 µM | Kd [16]: 0.012 µM

B6: IL6R-BP565/IL6R-L (antibody, human IgG1, kappa)
heavy: B2 heavy with Y236L, G239D, S269A, D270E, Y298D, A328K, K332R
light: not shown
notes: copies: 2 + 2
KD(IIaH)/KD(IIb) [9]: 856 | KD(IIaR) of the parent polypeptide/KD(IIaR) of the altered polypeptide [10]: 4.8 | KD(IIb) of the parent polypeptide/KD(IIb) of the altered polypeptide [11]: 565 | KD(IIaR)/KD(IIb) [12]: 41.5 | Kd [13]: 0.23 µM | Kd [14]: 4.7 µM | Kd [15]: 0.0055 µM | Kd [16]: 0.0024 µM

B7: FH4-IgG1 (antibody, V domains shown)
VH: QVQLVQSGAEVKKPGSSVKVSCKASGGTFSSYAISWVRQAPGQGLEWMGGIIPIFGTANYAQKFQGRVTITADESTSTAYMELSSLRSEDTAVYYCARERDYYDSSGYYDAFDIWGQGTMVTVSS
VL: ETTVTQSPSFLSASVGDRVTITCITTTDIDDDMNWFQQEPGKAPKLLISEGNILRPGVPSRFSSSGYGTDFTLTISKLQPEDFATYYCLQSDNLPFTFGQGTKLEIKR
Kd [17]: ≥ 34 µM | Kd [18]: ~34 µM

B8: 6RL#9-IgG1 (antibody, V domains shown)
VH: QVQLVQSGAEVKKPGASVKVSCKASGYTFTSYYMHWVRQAPGQGLEWMGIINPSGGSTSYAQKFQGRVTMTRDTSTSTVYMELSSLRSEDTAVYYCARDDPGGGEYYFDYWGQGTLVTVSS
VL: QSVLTQPPSVSGAPGQRVTISCTGSRSNMGAGYDVHWYQLLPGAAPKLLISHNTHRPSGVPDRFSGSKSGASASLAITGLQAEDEADYYCQSHDSSLSAVVFGGGTKLTVLS
Kd [17]: ≥ 31 µM | Kd [18]: ~31 µM
